Test results from patent US20220025010A1 (ANTAG THERAPEUTICS, published 2022).
*1 amine or outer side, *2 acyl side, *3 side chain or, on linkers, in order; H or OH if unused. Where no end group is shown, it is not given here. Side-chain parts run from the residue outwards. The star is where a group is joined. C18 diacid = O=C(O)CCCCCCCCCCCCCCCCC(=O)*; C16 diacid = O=C(O)CCCCCCCCCCCCCCC(=O)*; γGlu = O=C(O)[C@H](CCC(=O)[*:2])N[*:1]; AEEA = NCCOCCOCC(=O)O

T1: human GIP receptor (human, UniProt P48546 22-466)
T1 sequence (looked up): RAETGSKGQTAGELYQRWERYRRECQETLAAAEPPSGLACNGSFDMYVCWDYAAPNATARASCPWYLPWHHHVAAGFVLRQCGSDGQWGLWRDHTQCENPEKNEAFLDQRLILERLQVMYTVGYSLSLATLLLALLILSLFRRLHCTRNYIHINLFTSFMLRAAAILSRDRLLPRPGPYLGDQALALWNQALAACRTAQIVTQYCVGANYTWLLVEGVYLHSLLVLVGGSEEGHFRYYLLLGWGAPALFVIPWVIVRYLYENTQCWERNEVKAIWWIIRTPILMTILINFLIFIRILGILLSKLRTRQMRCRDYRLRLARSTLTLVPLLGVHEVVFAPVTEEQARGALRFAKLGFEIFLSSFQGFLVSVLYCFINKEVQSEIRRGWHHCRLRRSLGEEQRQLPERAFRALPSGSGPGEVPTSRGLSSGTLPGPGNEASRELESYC

B1: AT393 (peptide)
peptide: SGTFISDYSIAMDRIK(C18 diacid)QQDFVNWLLAQR-NH2
modifications: N-terminus assumed
SMILES: CC[C@H](C)[C@H](NC(=O)[C@H](CO)NC(=O)[C@H](Cc1ccc(O)cc1)NC(=O)[C@H](CC(=O)O)NC(=O)[C@H](CO)NC(=O)[C@@H](NC(=O)[C@H](Cc1ccccc1)NC(=O)[C@@H](NC(=O)CNC(=O)[C@@H](N)CO)[C@@H](C)O)[C@@H](C)CC)C(=O)N[C@@H](C)C(=O)N[C@@H](CCSC)C(=O)N[C@@H](CC(=O)O)C(=O)N[C@@H](CCCNC(=N)N)C(=O)N[C@H](C(=O)N[C@@H](CCCCNC(=O)CCCCCCCCCCCCCCCCC(=O)O)C(=O)N[C@@H](CCC(N)=O)C(=O)N[C@@H](CCC(N)=O)C(=O)N[C@@H](CC(=O)O)C(=O)N[C@@H](Cc1ccccc1)C(=O)N[C@H](C(=O)N[C@@H](CC(N)=O)C(=O)N[C@@H](Cc1c[nH]c2ccccc12)C(=O)N[C@@H](CC(C)C)C(=O)N[C@@H](CC(C)C)C(=O)N[C@@H](C)C(=O)N[C@@H](CCC(N)=O)C(=O)N[C@@H](CCCNC(=N)N)C(N)=O)C(C)C)[C@@H](C)CC
B2: AT384 (peptide)
peptide: SGTFISDYSIAMDRIK([AEEA-AEEA-γGlu-C18 diacid])QQDFVNWLLAQR-NH2
modifications: N-terminus assumed
SMILES: CC[C@H](C)[C@H](NC(=O)[C@H](CO)NC(=O)[C@H](Cc1ccc(O)cc1)NC(=O)[C@H](CC(=O)O)NC(=O)[C@H](CO)NC(=O)[C@@H](NC(=O)[C@H](Cc1ccccc1)NC(=O)[C@@H](NC(=O)CNC(=O)[C@@H](N)CO)[C@@H](C)O)[C@@H](C)CC)C(=O)N[C@@H](C)C(=O)N[C@@H](CCSC)C(=O)N[C@@H](CC(=O)O)C(=O)N[C@@H](CCCNC(=N)N)C(=O)N[C@H](C(=O)N[C@@H](CCCCNC(=O)COCCOCCNC(=O)COCCOCCNC(=O)CC[C@H](NC(=O)CCCCCCCCCCCCCCCCC(=O)O)C(=O)O)C(=O)N[C@@H](CCC(N)=O)C(=O)N[C@@H](CCC(N)=O)C(=O)N[C@@H](CC(=O)O)C(=O)N[C@@H](Cc1ccccc1)C(=O)N[C@H](C(=O)N[C@@H](CC(N)=O)C(=O)N[C@@H](Cc1c[nH]c2ccccc12)C(=O)N[C@@H](CC(C)C)C(=O)N[C@@H](CC(C)C)C(=O)N[C@@H](C)C(=O)N[C@@H](CCC(N)=O)C(=O)N[C@@H](CCCNC(=N)N)C(N)=O)C(C)C)[C@@H](C)CC
B3: AT383 (peptide)
peptide: SGTFISDYSIAMDRIK([AEEA-AEEA-AEEA-γGlu-C16 diacid])QQDFVNWLLAQR-NH2
modifications: N-terminus assumed
SMILES: CC[C@H](C)[C@H](NC(=O)[C@H](CO)NC(=O)[C@H](Cc1ccc(O)cc1)NC(=O)[C@H](CC(=O)O)NC(=O)[C@H](CO)NC(=O)[C@@H](NC(=O)[C@H](Cc1ccccc1)NC(=O)[C@@H](NC(=O)CNC(=O)[C@@H](N)CO)[C@@H](C)O)[C@@H](C)CC)C(=O)N[C@@H](C)C(=O)N[C@@H](CCSC)C(=O)N[C@@H](CC(=O)O)C(=O)N[C@@H](CCCNC(=N)N)C(=O)N[C@H](C(=O)N[C@@H](CCCCNC(=O)COCCOCCNC(=O)COCCOCCNC(=O)COCCOCCNC(=O)CC[C@H](NC(=O)CCCCCCCCCCCCCCC(=O)O)C(=O)O)C(=O)N[C@@H](CCC(N)=O)C(=O)N[C@@H](CCC(N)=O)C(=O)N[C@@H](CC(=O)O)C(=O)N[C@@H](Cc1ccccc1)C(=O)N[C@H](C(=O)N[C@@H](CC(N)=O)C(=O)N[C@@H](Cc1c[nH]c2ccccc12)C(=O)N[C@@H](CC(C)C)C(=O)N[C@@H](CC(C)C)C(=O)N[C@@H](C)C(=O)N[C@@H](CCC(N)=O)C(=O)N[C@@H](CCCNC(=N)N)C(N)=O)C(C)C)[C@@H](C)CC
B4: AT385 (peptide)
peptide: SGTFISDYSIAMDRIK([AEEA-AEEA-AEEA-γGlu-C18 diacid])QQDFVNWLLAQR-NH2
modifications: N-terminus assumed
SMILES: CC[C@H](C)[C@H](NC(=O)[C@H](CO)NC(=O)[C@H](Cc1ccc(O)cc1)NC(=O)[C@H](CC(=O)O)NC(=O)[C@H](CO)NC(=O)[C@@H](NC(=O)[C@H](Cc1ccccc1)NC(=O)[C@@H](NC(=O)CNC(=O)[C@@H](N)CO)[C@@H](C)O)[C@@H](C)CC)C(=O)N[C@@H](C)C(=O)N[C@@H](CCSC)C(=O)N[C@@H](CC(=O)O)C(=O)N[C@@H](CCCNC(=N)N)C(=O)N[C@H](C(=O)N[C@@H](CCCCNC(=O)COCCOCCNC(=O)COCCOCCNC(=O)COCCOCCNC(=O)CC[C@H](NC(=O)CCCCCCCCCCCCCCCCC(=O)O)C(=O)O)C(=O)N[C@@H](CCC(N)=O)C(=O)N[C@@H](CCC(N)=O)C(=O)N[C@@H](CC(=O)O)C(=O)N[C@@H](Cc1ccccc1)C(=O)N[C@H](C(=O)N[C@@H](CC(N)=O)C(=O)N[C@@H](Cc1c[nH]c2ccccc12)C(=O)N[C@@H](CC(C)C)C(=O)N[C@@H](CC(C)C)C(=O)N[C@@H](C)C(=O)N[C@@H](CCC(N)=O)C(=O)N[C@@H](CCCNC(=N)N)C(N)=O)C(C)C)[C@@H](C)CC
B5: AT354 (peptide)
peptide: ISDYSIAMDKIK(C16 diacid)QQDFVNWLLAQK-NH2
modifications: N-terminus assumed
SMILES: CC[C@H](C)[C@H](N)C(=O)N[C@@H](CO)C(=O)N[C@@H](CC(=O)O)C(=O)N[C@@H](Cc1ccc(O)cc1)C(=O)N[C@@H](CO)C(=O)N[C@H](C(=O)N[C@@H](C)C(=O)N[C@@H](CCSC)C(=O)N[C@@H](CC(=O)O)C(=O)N[C@@H](CCCCN)C(=O)N[C@H](C(=O)N[C@@H](CCCCNC(=O)CCCCCCCCCCCCCCC(=O)O)C(=O)N[C@@H](CCC(N)=O)C(=O)N[C@@H](CCC(N)=O)C(=O)N[C@@H](CC(=O)O)C(=O)N[C@@H](Cc1ccccc1)C(=O)N[C@H](C(=O)N[C@@H](CC(N)=O)C(=O)N[C@@H](Cc1c[nH]c2ccccc12)C(=O)N[C@@H](CC(C)C)C(=O)N[C@@H](CC(C)C)C(=O)N[C@@H](C)C(=O)N[C@@H](CCC(N)=O)C(=O)N[C@@H](CCCCN)C(N)=O)C(C)C)[C@@H](C)CC)[C@@H](C)CC
B6: AT356 (peptide)
peptide: DYSIAMDKIK(C16 diacid)QQDFVNWLLAQK-NH2
modifications: N-terminus assumed
SMILES: CC[C@H](C)[C@H](NC(=O)[C@H](CO)NC(=O)[C@H](Cc1ccc(O)cc1)NC(=O)[C@@H](N)CC(=O)O)C(=O)N[C@@H](C)C(=O)N[C@@H](CCSC)C(=O)N[C@@H](CC(=O)O)C(=O)N[C@@H](CCCCN)C(=O)N[C@H](C(=O)N[C@@H](CCCCNC(=O)CCCCCCCCCCCCCCC(=O)O)C(=O)N[C@@H](CCC(N)=O)C(=O)N[C@@H](CCC(N)=O)C(=O)N[C@@H](CC(=O)O)C(=O)N[C@@H](Cc1ccccc1)C(=O)N[C@H](C(=O)N[C@@H](CC(N)=O)C(=O)N[C@@H](Cc1c[nH]c2ccccc12)C(=O)N[C@@H](CC(C)C)C(=O)N[C@@H](CC(C)C)C(=O)N[C@@H](C)C(=O)N[C@@H](CCC(N)=O)C(=O)N[C@@H](CCCCN)C(N)=O)C(C)C)[C@@H](C)CC

molecular target: T1, human GIP receptor; assay: cell-based or functional assay

For B1, which “CisBio cAMP agonism % Efficacy” value is on record?
Its value is 6%.

And the “CisBio cAMP antagonism % inhib” value?
Its value is 78%.

What about the “CisBio cAMP antagonism IC50” value of the same binder?
Its value is 33.5 nM.

And the “CisBio cAMP antagonism pIC50” value?
Its value is 7.5.

What about the “DiscoveRx cAMP antagonism % inhib” value of the same binder?
Its value is 100%.

What about the “DiscoveRx cAMP antagonism IC50” value of the same binder?
Its value is 1 nM.

And the “DiscoveRx cAMP antagonism log IC50” value?
The value was -8.9 log M.

For B2, which “CisBio cAMP agonism % Efficacy” value is on record?
Its value is 0%.

And the “CisBio cAMP antagonism % inhib” value?
Its value is 97%.

What about the “CisBio cAMP antagonism IC50” value of the same binder?
The value was 54.1 nM.

What about the “CisBio cAMP antagonism pIC50” value of the same binder?
Its value is 7.3.

And the “DiscoveRx cAMP antagonism % inhib” value?
Its value is 100%.

And the “DiscoveRx cAMP antagonism IC50” value?
Its value is 8 nM.

What about the “DiscoveRx cAMP antagonism log IC50” value of the same binder?
Its value is -8.1 log M.

Which “CisBio cAMP agonism % Efficacy” value does the source give for B3 here?
Its value is 0%.

And the “CisBio cAMP antagonism % inhib” value?
The value was 89%.

And the “CisBio cAMP antagonism IC50” value?
The value was 12.6 nM.

What about the “CisBio cAMP antagonism pIC50” value of the same binder?
Its value is 7.9.

And the “DiscoveRx cAMP antagonism % inhib” value?
Its value is 100%.

And the “DiscoveRx cAMP antagonism IC50” value?
Its value is 1 nM.

What about the “DiscoveRx cAMP antagonism log IC50” value of the same binder?
Its value is -8.9 log M.

B4 was tested. Which “CisBio cAMP agonism % Efficacy” value did it give?
The value was 3%.

What about the “CisBio cAMP antagonism % inhib” value of the same binder?
Its value is 70%.

And the “CisBio cAMP antagonism IC50” value?
Its value is 43 nM.

What about the “CisBio cAMP antagonism pIC50” value of the same binder?
The value was 7.4.

What about the “DiscoveRx cAMP antagonism % inhib” value of the same binder?
The value was 100%.

What about the “DiscoveRx cAMP antagonism IC50” value of the same binder?
Its value is 4 nM.

And the “DiscoveRx cAMP antagonism log IC50” value?
The value was -8.4 log M.

How did the “CisBio cAMP agonism % Efficacy” value turn out when B5 was run?
Its value is 0%.

And the “CisBio cAMP antagonism % inhib” value?
Its value is 91%.

What about the “CisBio cAMP antagonism IC50” value of the same binder?
The value was 108 nM.

What about the “CisBio cAMP antagonism pIC50” value of the same binder?
Its value is 7.

With B6 as the binder, how does the “CisBio cAMP agonism % Efficacy” value read?
Its value is 0%.

molecular target: T1, human GIP receptor; assay: cell-based or functional assay; remark: another data set of the same source

Which results are given for B5?
cAMP antagonism % inhib: 100%; cAMP antagonism IC50: 10 nM; cAMP antagonism log IC50: -8 log M

molecular target: T1, human GIP receptor; assay: cell-based or functional assay; remark: another data set of the same source

What does the source list for B1?
CisBio cAMP antagonism % inhib: 78%; CisBio cAMP antagonism IC50: 33.5 nM; cAMP antagonism % inhib: 100%; cAMP antagonism IC50: 1 nM

For B2, which “CisBio cAMP antagonism % inhib” value is on record?
The value was 97%.

And the “CisBio cAMP antagonism IC50” value?
The value was 54.1 nM.

What about the “cAMP antagonism % inhib” value of the same binder?
Its value is 100%.

And the “cAMP antagonism IC50” value?
Its value is 8 nM.

What does the source list for B3?
CisBio cAMP antagonism % inhib: 89%; CisBio cAMP antagonism IC50: 12.6 nM; cAMP antagonism % inhib: 100%; cAMP antagonism IC50: 1 nM

For B4, which “CisBio cAMP antagonism % inhib” value is on record?
The value was 70%.

What about the “CisBio cAMP antagonism IC50” value of the same binder?
The value was 43 nM.

What about the “cAMP antagonism % inhib” value of the same binder?
Its value is 100%.

And the “cAMP antagonism IC50” value?
The value was 4 nM.
